Measured values taken from patent US20220153873A1 (ICAHN SCHOOL OF MEDICINE AT MOUNT SINAI, published 2022).
Where “and” joins values, the source holds several entries; their conditions need not be identical. Equal values may be shown once.

Assays:
[1] = target: recombinant neuraminidase (rNA) of B/Wisconsin/1/10 (influenza B virus B/Wisconsin/1/10)
[2] = target: recombinant neuraminidase (rNA) of B/Malaysia/2506/04 (influenza B virus B/Malaysia/2506/04)

B1: HC0LC0 (antibody, V domains shown)
VH: QVHLQQSGPEVARPGASVKLSCKASGYTFTDYYLNWVKQRPRQGLEWIGQIHPGSTNTYYNEKFKGKATLTADKSSSTAYMQLSSLTSEDSAVYFCARSLGDGYYVYAMDYWGQGTAVTVSS
VL: DIVMTQSQKFMSTSVGDRVSVTCKASQNVVTNVVWYQQKPGQSPKPLIYSASYRYSGVPDRFTGSGSGTDFTLTISNVQSEDLAEYCCQQYHSYPFTFGSGTKLEVKR
For B1, the Early Stability X=902 [1] was 0.32 nm and 0.3 nm and 0.33 nm and the % Dissociation [2] was 0.52% and 0%.
